Measurements as given in US20170137467A1 (CHROMOTEK, published 2017).

T1: BC2T A5D (human)
T1 construct: position 5 library, row D
T1 peptide: Ac-PDRKDAVSHWQQ-NH2

T2: BC2T D2Q (human)
T2 construct: position 2 library, row Q
T2 peptide: Ac-PQRKAAVSHWQQ-NH2

T3: BC2T A6N (human)
T3 construct: position 6 library (BC2TA6X), row N
T3 peptide: Ac-PDRKANVSHWQQ-NH2

T4: BC2T A6R (human)
T4 construct: position 6 library (BC2TA6X), row R
T4 peptide: Ac-PDRKARVSHWQQ-NH2

T5: BC2T D2T (human)
T5 construct: position 2 library, row T
T5 peptide: Ac-PTRKAAVSHWQQ-NH2

T6: BC2T A6Y (human)
T6 construct: position 6 library (BC2TA6X), row Y
T6 peptide: Ac-PDRKAYVSHWQQ-NH2

T7: BC2T K4T (human)
T7 construct: position 4 library, row T
T7 peptide: Ac-PDRTAAVSHWQQ-NH2

T8: BC2T D2H (human)
T8 construct: position 2 library, row H
T8 peptide: Ac-PHRKAAVSHWQQ-NH2

T9: BC2T K4C(Abu) (human, not fully specified (residue 4))
T9 construct: position 4 library, row C(Abu) / C*
T9 peptide: Ac-PDRCAAVSHWQQ-NH2

T10: BC2T A6F (human)
T10 construct: position 6 library (BC2TA6X), row F
T10 peptide: Ac-PDRKAFVSHWQQ-NH2

T11: BC2T A5P (human)
T11 construct: position 5 library, row P
T11 peptide: Ac-PDRKPAVSHWQQ-NH2

T12: BC2T K4D (human)
T12 construct: position 4 library, row D
T12 peptide: Ac-PDRDAAVSHWQQ-NH2

T13: BC2T V7K (human)
T13 construct: position 7 library, row K
T13 peptide: Ac-PDRKAAKSHWQQ-NH2

T14: BC2T D2R (human)
T14 construct: position 2 library, row R
T14 peptide: Ac-PRRKAAVSHWQQ-NH2

T15: BC2T V7Q (human)
T15 construct: position 7 library, row Q
T15 peptide: Ac-PDRKAAQSHWQQ-NH2

T16: BC2T V7W (human)
T16 construct: position 7 library, row W
T16 peptide: Ac-PDRKAAWSHWQQ-NH2

T17: BC2T D2S (human)
T17 construct: position 2 library, row S
T17 peptide: Ac-PSRKAAVSHWQQ-NH2

T18: BC2T A5K (human)
T18 construct: position 5 library, row K
T18 peptide: Ac-PDRKKAVSHWQQ-NH2

T19: BC2T R3F (human)
T19 construct: position 3 library (BC2TR3X), row F
T19 peptide: Ac-PDFKAAVSHWQQ-NH2

T20: BC2T A5S (human)
T20 construct: position 5 library, row S
T20 peptide: Ac-PDRKSAVSHWQQ-NH2

T21: BC2T A6T (human)
T21 construct: position 6 library (BC2TA6X), row T
T21 peptide: Ac-PDRKATVSHWQQ-NH2

T22: BC2T A6W (human)
T22 construct: position 6 library (BC2TA6X), row W
T22 peptide: Ac-PDRKAWVSHWQQ-NH2


Legend:
Experiment in all cases: library pulldown, LC-MS of supernatant; ratio vs GFP-Nb control (0=captured, 1=not captured)
BC2T A5D = molecular target: T1, BC2T A5D
Procedure, shortened: (§1)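 Unbound peptide left in supernatant after 1 h pulldown in PBS/0.01% CHAPS measured by reversed-phase LC-MS (8–30% eluent B gradient, 20 min).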

BC2T D2Q = molecular target: T2, BC2T D2Q
Procedure, shortened: as §1

BC2T A6N = molecular target: T3, BC2T A6N
Procedure, shortened: as §1

BC2T A6R = molecular target: T4, BC2T A6R
Procedure, shortened: as §1

BC2T D2T = molecular target: T5, BC2T D2T
Procedure, shortened: as §1

BC2T A6Y = molecular target: T6, BC2T A6Y
Procedure, shortened: as §1

BC2T K4T = molecular target: T7, BC2T K4T
Procedure, shortened: as §1

BC2T D2H = molecular target: T8, BC2T D2H
Procedure, shortened: as §1

BC2T K4C(Abu) = molecular target: T9, BC2T K4C(Abu)
Procedure, shortened: as §1

BC2T A6F = molecular target: T10, BC2T A6F
Procedure, shortened: as §1

BC2T A5P = molecular target: T11, BC2T A5P
Procedure, shortened: as §1

BC2T K4D = molecular target: T12, BC2T K4D
Procedure, shortened: as §1

BC2T V7K = molecular target: T13, BC2T V7K
Procedure, shortened: as §1

BC2T D2R = molecular target: T14, BC2T D2R
Procedure, shortened: as §1

BC2T V7Q = molecular target: T15, BC2T V7Q
Procedure, shortened: as §1

BC2T V7W = molecular target: T16, BC2T V7W
Procedure, shortened: as §1

BC2T D2S = molecular target: T17, BC2T D2S
Procedure, shortened: as §1

BC2T A5K = molecular target: T18, BC2T A5K
Procedure, shortened: as §1

BC2T R3F = molecular target: T19, BC2T R3F
Procedure, shortened: as §1

BC2T A5S = molecular target: T20, BC2T A5S
Procedure, shortened: as §1

BC2T A6T = molecular target: T21, BC2T A6T
Procedure, shortened: as §1

BC2T A6W = molecular target: T22, BC2T A6W
Procedure, shortened: as §1

Row | ratio (BC2T A5D) | ratio (BC2T D2Q) | ratio (BC2T A6N) | ratio (BC2T A6R) | ratio (BC2T D2T) | ratio (BC2T A6Y) | ratio (BC2T K4T) | ratio (BC2T D2H) | ratio (BC2T K4C(Abu)) | ratio (BC2T A6F) | ratio (BC2T A5P) | ratio (BC2T K4D) | ratio (BC2T V7K) | ratio (BC2T D2R) | ratio (BC2T V7Q) | ratio (BC2T V7W) | ratio (BC2T D2S) | ratio (BC2T A5K) | ratio (BC2T R3F) | ratio (BC2T A5S) | Binder | other results
1 | 0.5 | 0.1 | 1 | 1.1 | 0.1 | 1 | 0.2 | 0.1 | 0.1 | 1 | 0.1 | 1 | 0.3 | 0.1 | 0.4 | 0.1 | 0.1 | 0.2 | 0.8 | 0.1 | BC2 nanobody (BC2-Nb) (VHH, immobilised on agarose/sepharose beads in this assay; also called BC2 nanotrap (immobilised form); not shown: C-terminal 6xHis-tag added by pHEN6 vector) VHH: QVQLVESGGGLVQPGGSLTLSCTASGFTLDHYDIGWFRQAPGKEREGVSCINNSDDDTYYADSVKGRFTIFMDNAKDTVYLQMNSLKPEDTAIYYCAEARGCKRGRYEYDFWGQGTQVTVSS | ratio (BC2T A6T): 0.2; ratio (BC2T A6W): 1.1
2 | 0.9 | 0.2 | 1 | 0.7 | 0.2 | 0.9 | 0.7 | 0.2 | 0.3 | 0.9 | 0.4 | 1 | 0.3 | 0.2 | 0.5 | 0.3 | 0.3 | 0.2 | 1 | 0.4 | BC2-NbR106S (VHH, immobilised on beads in this assay; not shown: C-terminal 6xHis-tag added by pHEN6 vector) VHH: QVQLVESGGGLVQPGGSLTLSCTASGFTLDHYDIGWFRQAPGKEREGVSCINNSDDDTYYADSVKGRFTIFMDNAKDTVYLQMNSLKPEDTAIYYCAEARGCKRGSYEYDFWGQGTQVTVSS | ratio (BC2T A6T): 0.4; ratio (BC2T A6W): 1
